Laboratory results from US20130326736A1.

What was measured:
[1] = molecular target: CORYNE (CRN; At5g13290) (Arabidopsis) (UniProt Q9LYU7); assay: cell-based or functional assay
[2] = molecular target: CLAVATA2 (CLV2; At1g65380) (Arabidopsis) (UniProt O80809); assay: cell-based or functional assay
Sequence of UniProt O80809 (O80809 26-720): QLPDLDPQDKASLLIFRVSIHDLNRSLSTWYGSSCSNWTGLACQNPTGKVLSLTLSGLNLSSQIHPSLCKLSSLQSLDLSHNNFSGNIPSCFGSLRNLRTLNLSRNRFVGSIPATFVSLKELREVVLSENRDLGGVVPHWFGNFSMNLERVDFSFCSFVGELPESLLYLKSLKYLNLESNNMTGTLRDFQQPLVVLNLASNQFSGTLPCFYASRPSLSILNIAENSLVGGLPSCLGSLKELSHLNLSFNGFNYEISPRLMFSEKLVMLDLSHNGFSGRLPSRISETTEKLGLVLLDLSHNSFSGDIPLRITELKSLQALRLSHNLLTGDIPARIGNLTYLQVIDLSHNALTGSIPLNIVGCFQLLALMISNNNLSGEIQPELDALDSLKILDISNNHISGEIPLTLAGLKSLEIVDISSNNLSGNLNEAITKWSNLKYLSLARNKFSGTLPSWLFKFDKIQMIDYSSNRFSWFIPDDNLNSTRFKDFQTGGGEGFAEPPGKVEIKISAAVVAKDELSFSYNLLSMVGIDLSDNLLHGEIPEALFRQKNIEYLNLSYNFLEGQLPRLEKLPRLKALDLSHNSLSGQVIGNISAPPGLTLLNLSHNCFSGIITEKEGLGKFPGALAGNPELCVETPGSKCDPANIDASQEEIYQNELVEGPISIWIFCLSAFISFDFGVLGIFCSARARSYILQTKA

Sequence of UniProt Q9LYU7 (Q9LYU7 34-401): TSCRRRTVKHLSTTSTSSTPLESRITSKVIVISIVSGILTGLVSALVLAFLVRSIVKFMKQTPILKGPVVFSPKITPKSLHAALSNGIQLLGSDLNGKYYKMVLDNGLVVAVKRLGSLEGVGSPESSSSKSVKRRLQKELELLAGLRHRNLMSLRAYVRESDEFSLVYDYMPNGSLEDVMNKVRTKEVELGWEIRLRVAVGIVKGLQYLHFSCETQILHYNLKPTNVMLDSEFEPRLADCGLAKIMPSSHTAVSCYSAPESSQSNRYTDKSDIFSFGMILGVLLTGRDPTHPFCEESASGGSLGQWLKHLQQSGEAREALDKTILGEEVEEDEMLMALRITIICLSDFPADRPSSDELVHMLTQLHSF

Work on “HgCLE2ΔSP (soybean cyst nematode CLE protein, overexpressed in Arabidopsis) (ligand)” yielded a wus-like (%) T1 shoot phenotypes, overexpression in crn-1 [1] of 0% and a wus-like (%) T1 shoot phenotypes, overexpression in clv2-1 [2] of 0%.

With “HsCLE1 (beet cyst nematode CLE protein, overexpressed in Arabidopsis) (ligand)” the wus-like (%) T1 shoot phenotypes, overexpression in crn-1 [1] was 0% and the wus-like (%) T1 shoot phenotypes, overexpression in clv2-1 [2] was 0%.

In the case of “HsCLE2 (beet cyst nematode CLE protein, overexpressed in Arabidopsis) (ligand)”, the wus-like (%) T1 shoot phenotypes, overexpression in crn-1 [1] is reported as 0% and the wus-like (%) T1 shoot phenotypes, overexpression in clv2-1 [2] is reported as 0%.
